Experimental data: the supplement of paper PMC10567573

Assay: protein stability index of a GFP-peptide fusion (GPS, HEK-293T) (PSI 1-6); higher = more stable
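Also: lentivirally expressed fusions sorted by FACS into six bins by GFP to DsRed ratio, PSI derived from sequencing read proportions per bin multiplied by bin number.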

## NWRYATGGWETVFRPVSETCTDRS
parent: IOH44218_42, c terminus: a fixed tail appended
  protein stability index: 1.78

## YAHQPRTADEIPMEPGDIIGVAGN
parent: IOH44218_86, c terminus: a fixed tail appended
  protein stability index: 4.04

## YPSYKVREKIETVKYPTYPEAEK
parent: IOH44218_94, c terminus: native
  protein stability index: 4.2

## FQFASIDVAGNLDYKALSYVITHG
parent: IOH44370_25, c terminus: a fixed tail appended
  protein stability index: 2.42

## DVAGNLDYKALSYVITHGEEKEE
parent: IOH44370_26, c terminus: native
  protein stability index: 2.21

## VVGTPCYISPELCEGKPYNQKSDI
parent: IOH45357_28, c terminus: a fixed tail appended
  protein stability index: 2.69

## VTIKHVACGDFFTACLTDRGIIMT
parent: IOH45357_66, c terminus: a fixed tail appended
  protein stability index: 2.6

## YTFGSNQHGQLGTNTRRGSRAPCK
parent: IOH45357_98, c terminus: a fixed tail appended
  protein stability index: 3.79

## KLLVVDRTRRLGNMKNGANDVKHH [PRKX WT]
parent: IOH45425_47, c terminus: a fixed tail appended
  protein stability index: 3.15

## YQQIKAGAYDFPSPEWDTVTPEAK [CAMK2B WT]
parent: IOH45432_38, c terminus: a fixed tail appended
  protein stability index: 3.58

## DYFPSEDFYRCGYCKNESGSRSNG
parent: IOH45551_3, c terminus: a fixed tail appended
  protein stability index: 2.1

## YGSFHQQYWLDGKIIAVGVIDILP
parent: IOH45551_57, c terminus: a fixed tail appended
  protein stability index: 2.33

## YQDMIYAVGGRDDTTELSSAERYN [KLHL20 WT]
parent: IOH45628_85, c terminus: a fixed tail appended
  protein stability index: 2.4

## FQGSMRIFTKKLPHPDLPAEEKEQ
parent: IOH45672_59, c terminus: a fixed tail appended
  protein stability index: 2.02

## FVEKNPTIVNFPITNVDLREYLSE
parent: IOH45672_78, c terminus: a fixed tail appended
  protein stability index: 1.94

## TLSEAYIQIWKRRDNDETNQQGA
parent: IOH45672_93, c terminus: native
  protein stability index: 2.22

## AKREETKAMESQRAYRFVQGKDWG
parent: IOH45687_19, c terminus: a fixed tail appended
  protein stability index: 2.71

## PDDKLTLFCEVSVVQDSVNISGHT
parent: IOH45687_26, c terminus: a fixed tail appended
  protein stability index: 2.06

## YTGRAPNLDKMADNLLAAADKYAL
parent: IOH45687_44, c terminus: a fixed tail appended
  protein stability index: 2.12

## NWLGRPSKVLSLQDLCCRTIVSCT [RAB40A WT]
parent: IOH45721_31, c terminus: a fixed tail appended
  protein stability index: 2.45

## CFITLTTIGFGDYVALQTKGALQK
parent: IOH45737_33, c terminus: a fixed tail appended
  protein stability index: 2.94

## DVPDLQSVCSCTCYRSQDYGGRSV
parent: IOH45737_49, c terminus: a fixed tail appended
  protein stability index: 1.8

## QVPVVDFQAELRQAFLAETPRGG [SNURF WT]
parent: IOH45840_9, c terminus: native
  protein stability index: 2.99

## FHLAPARAGHHPNQYATCRLCGRQ
parent: IOH45853_11, c terminus: a fixed tail appended
  protein stability index: 1.84

## RAGHHPNQYATCRLCGRQVSRGPG
parent: IOH45853_12, c terminus: a fixed tail appended
  protein stability index: 2.02

## ITDSYPVVKRREGPAGHSKGELAP [POLD4 WT]
parent: IOH45937_2, c terminus: a fixed tail appended
  protein stability index: 2.96

## ANPYWTSRGSSVSMSGGRFRCPTC [TRIM63 WT]
parent: IOH45956_10, c terminus: a fixed tail appended
  protein stability index: 1.99
